Experimental data as given in patent US20180201649A1 (YALE UNIVERSITY, published 2018).

T1: endothelial nitric oxide synthase (eNOS) (bovine (endogenous in BAEC), UniProt P29473 2-1205)
T1 sequence (looked up): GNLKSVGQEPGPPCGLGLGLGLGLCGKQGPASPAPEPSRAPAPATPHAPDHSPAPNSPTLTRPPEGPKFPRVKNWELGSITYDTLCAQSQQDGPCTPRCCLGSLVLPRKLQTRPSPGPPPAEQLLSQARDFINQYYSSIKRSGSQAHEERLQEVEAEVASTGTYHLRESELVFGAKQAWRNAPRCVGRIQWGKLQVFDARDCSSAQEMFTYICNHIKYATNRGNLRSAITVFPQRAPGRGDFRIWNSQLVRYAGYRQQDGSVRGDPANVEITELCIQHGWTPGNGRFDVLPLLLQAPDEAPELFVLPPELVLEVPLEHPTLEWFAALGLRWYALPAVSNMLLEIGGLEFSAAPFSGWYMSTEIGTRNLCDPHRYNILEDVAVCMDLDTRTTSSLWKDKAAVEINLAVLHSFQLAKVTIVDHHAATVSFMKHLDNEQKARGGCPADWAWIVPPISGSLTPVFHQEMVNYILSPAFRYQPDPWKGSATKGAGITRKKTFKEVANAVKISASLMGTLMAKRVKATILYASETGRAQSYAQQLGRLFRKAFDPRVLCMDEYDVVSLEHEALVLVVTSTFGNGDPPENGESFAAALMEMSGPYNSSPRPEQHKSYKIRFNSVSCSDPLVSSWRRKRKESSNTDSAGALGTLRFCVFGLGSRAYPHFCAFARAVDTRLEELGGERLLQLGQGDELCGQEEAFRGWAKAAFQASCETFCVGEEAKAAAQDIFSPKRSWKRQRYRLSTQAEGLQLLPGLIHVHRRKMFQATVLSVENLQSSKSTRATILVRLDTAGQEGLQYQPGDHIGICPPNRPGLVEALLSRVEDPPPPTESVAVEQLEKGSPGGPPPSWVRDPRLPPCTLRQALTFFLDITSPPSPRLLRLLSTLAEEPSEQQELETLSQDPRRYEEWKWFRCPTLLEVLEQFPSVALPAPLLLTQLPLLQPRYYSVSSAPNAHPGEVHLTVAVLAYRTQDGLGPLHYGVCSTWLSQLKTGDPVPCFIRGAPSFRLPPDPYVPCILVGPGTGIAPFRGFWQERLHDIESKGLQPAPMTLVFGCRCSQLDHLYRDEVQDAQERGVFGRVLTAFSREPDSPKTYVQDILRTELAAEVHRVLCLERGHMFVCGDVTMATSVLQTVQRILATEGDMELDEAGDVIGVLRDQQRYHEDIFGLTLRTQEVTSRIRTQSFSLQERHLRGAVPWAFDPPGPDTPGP


Molecular target: T1, endothelial nitric oxide synthase (eNOS)
Test: cell-based or functional assay

Binder | EC50 of inhibition of VEGF-induced NO release in BAEC [µM]
RQIKIWFQNRRMKWKKDGIWKASFTTFTVTKYWFYR [AP-Cav] | 1.8
RRPPRDGIWKASFTTFTVTKYWFYR [Endo5-Cav] | 7.5
